Data from US12194082B2, “Compositions and methods for treatment of homocystinuria” (THE REGENTS OF THE UNIVERSITY OF COLORADO, priority 2016, dated 2025).
Values joined by “and” are separate entries in the source; they are usually repeats but may differ in a detail not shown here. Equal values may be shown once.

Assays:
tHcy, cystathionine = assay: Betaine, PEGC15S and combination treatment: transsulfuration metabolites; format: in vivo, HO mice
Procedure: (§1) Plasma metabolites homocysteine, cystathionine and cysteine were determined by stable-isotope-dilution liquid chromatography mass spectrometry as previously described in (Allen et al., 1993, Metabolism, 42: 1448-1460). Measurements of total non-protein bound homocysteine and other aminothiols as well as of amino acids in tissue were performed as described in (Maclean et al., 2010b. Mol. Genet. Metab. 101, 153-162). Metabolites were determined by stable-isotope-dilution liquid chromatography mass spectrometry.
The betaine and betaine+PEGC15S groups were treated with 2% betaine in the drinking water throughout the 18 days of the experiment, and the latter group was injected with 7.5 mg/kg PEGC15S on days 14 and 15. The PEGC15S single treatment group was maintained on regular water and injected on days 14 and 15 as well. […] The betaine single treatment group maintained these levels of tHcy to day 18. […] Thus, the combination of PEGC15S with betaine allows for maintaining lower tHcy levels for an extended period of time.

[1] = Pharmacokinetics of htCBS after a single dose (plasma CBS activity); format: in vivo, C57BL/6J mice; conditions: for observed peak plasma level: first 4 hours
Procedure: The pharmacokinetic properties of a pharmacologically active substance that is administered to circulation is greatly affected by natural mechanisms of ADME. Rapid clearance of the injected molecule may greatly impact treatment efficacy and thus longer circulating half-lives are desired, which may translate into less frequent administrations or smaller doses that in turn minimize the side effects. To determine the pharmacokinetics of htCBS in plasma circulation, a single dose of 5 mg/kg was injected via subcutaneous (SC), intravenous (IV) or intraperitoneal (IP) routes to C57BL/6J mice.

[2] = htCBS activity during in vitro incubation in mouse plasma at 37° C.; format: in vitro ADME, wild type or HO mice
Procedure: The rapid decline in htCBS activity in vivo may be attributed to a facilitated clearance from circulation and may also be attributed to the loss of enzymatic activity of htCBS once introduced to the environment in circulation. To test the latter, htCBS was incubated in vitro in mouse plasma of wild type or HO mice at 37° C. for up to 96 hours, with activity measured every 24 hours. […] A modest 25% loss of activity was recorded after 96 hours of incubation.

[3] = CBS enzyme activity assay, specific activity of pure enzyme; format: biochemical; conditions: PEGylated vs non-PEGylated htCBS
Procedure: CBS activity was determined by a radioisotope assay with C^14-labeled serine as a substrate. Ten μl (total 490 ng) of pure htCBS in dilution buffer (0.1 M Tris-HCl pH=8.6, 1 mM DTT, 10 μM PLP, 0.5 mg/ml BSA) or 10 μl of plasma were added to 85 μl of reaction mixture containing 0.1 M Tris-HCl pH=8.6, 10 mM L-serine, 0.5 mM PLP, 0.5 mg/ml BSA and 0.3 μCi (for pure enzyme) or 0.45 μCi (for plasma) of L-[C^14(U)]-Serine. Samples were incubated for 5 min at 37° C. and reaction was initiated by addition of 5 μl of 0.2 M Hcy (10 mM final concentration). Following 30 min of incubation at 37° C., a 20 μl aliquot of the assay mixture was applied onto a grade 3 CHR Whatman (NJ, USA) paper. Assay initiation and sampling of the resulting mixture were staggered so that each reaction time was 30 minutes. Descending paper chromatography was used to isolate the radioactive product (Cth) from a labeled substrate (Ser). The C^14-cystathionine formed in the reaction was separated from C^14-serine by an overnight descending paper chromatography in 2-propanol/formic acid/H2O (75:5.7:18.9 v/v). Radioactivity in the area of the marker cystathionine (detected by staining the marker lane with ninhydrin) was determined by cutting the chromatogram into strips that were submerged in 5 ml of Opti-fluor scintillation cocktail (PerkinElmer, MA, USA) and counted in a Beckman LS-3801 scintillation counter. An enzyme-free sample was used as a blank to monitor the background radioactivity that was then subtracted from each sample. For pure enzyme, specific activity values are expressed as enzyme units (the amount of enzyme that produces 1 μmol of cystathionine/hour) per mg of CBS, and for plasma samples as units per μl plasma.

[4] = system: homocysteine, cystathionine and cysteine; assay: Repeated administration of htCBS or PEGhtCBS: plasma and tissue metabolites; format: in vivo, HO mice; conditions: 5 mg/kg, 5 consecutive days on weeks 1 and 3
Procedure: as §1
This lack of metabolic modulation by non-PEGylated htCBS further confirms the necessity to modify htCBS by covalent attachment of polyethylene glycol molecules.
The long term effect of PEGhtCBS administration was monitored using HO mice. The PEGhtCBS enzyme was administered to 8 HO mice at a dose of 7.5 mg/kg, twice a week (Monday and Thursday) for the first two weeks, and then three times a week (Monday, Wednesday and Friday) for 6 weeks. Blood samples were collected 24 hours (Tuesday) and 72 hours (Monday) post injection (FIG. 4A-4C). […] Cystathionine and cysteine levels were positively influenced as well. […] In addition to analysis of plasma metabolites levels, liver, kidney and brain tissue samples from the injected mice were analyzed as well to determine the levels of non-protein bound homocysteine (free and disulfide-linked forms).

## C[N+](C)(C)CC(=O)O [betaine, N,N,N-trimethylglycine]
tHcy, cystathionine; 14 days of 2% betaine in drinking water
  decrease in tHcy: 29% and 32%
tHcy, cystathionine; throughout the 18 days
  cystathionine change: did not result in an increase

## htCBS: truncated recombinant human CBS (SEQ ID NO: 3) where the C-terminal regulatory region has been removed
[1]; 5 mg/kg IP
  AUC(0-t) (obs area): 932.4 mU-hr/μL
  Bioavailability: 92%
  E Half-life: 4.3 h
  MRT (area): 7.9 h
  cmax (obs): 75.9 Mu/μL
  observed peak plasma level: ≤ 76 mU/μL
[1]; 5 mg/kg IV
  AUC(0-t) (obs area): 1011 mU-hr/μL
  E Half-life: 2.7 h
  MRT (area): 4.9 h
  observed peak plasma level: up to 123 mU/μL
[1]; 5 mg/kg SC
  AUC(0-t) (obs area): 500.9 mU-hr/μL
  Bioavailability: 50%
  E Half-life: 6.1 h
  MRT (area): 9.5 h
  cmax (obs): 34.5 Mu/μL
[2]; after 96 hours
  loss of activity in mouse plasma: 25%
[2]; up to 72 hours
  loss of activity in mouse plasma: no significant loss of activity
[3]
  Specific Activity: 1193
[4]
  serum homocysteine levels: no change
